{
  "source": "paper PMC4894940",
  "about": "“The function of the two-pore channel TPC1 depends on dimerization of its carboxy-terminal helix” (Cellular and Molecular Life Sciences: CMLS, 2016)",
  "molecules": {"B1": {"name": "TPC1-3LA: leucines L714, 715, 719 of TPC1 replaced by alanine (protein, UniProt Q94KI8 1-733, looked up, variant L714A L715A L719A)", "Two pore calcium channel …": "MEDPLIGRDSLGGGGTDRVRRSEAITHGTPFQKAAALVDLAEDGIGLPVEILDQSSFGESARYYFIFTRLDLIWSLNYFALLFLNFFEQPLWCEKNPKPSCKDRDYYYLGELPYLTNAESIIYEVITLAILLVHTFFPISYEGSRIFWTSRLNLVKVACVVILFVDVLVDFLYLSPLAFDFLPFRIAPYVRVIIFILSIRELRDTLVLLSGMLGTYLNILALWMLFLLFASWIAFVMFEDTQQGLTVFTSYGATLYQMFILFTTSNNPDVWIPAYKSSRWSSVFFVLYVLIGVYFVTNLILAVVYDSFKEQLAKQVSGMDQMKRRMLEKAFGLIDSDKNGEIDKNQCIKLFEQLTNYRTLPKISKEEFGLIFDELDDTRDFKINKDEFADLCQAIALRFQKEEVPSLFEHFPQIYHSALSQQLRAFVRSPNFGYAISFILIINFIAVVVETTLDIEESSAQKPWQVAEFVFGWIYVLEMALKIYTYGFENYWREGANRFDFLVTWVIVIGETATFITPDENTFFSNGEWIRYLLLARMLRLIRLLMNVQRYRAFIATFITLIPSLMPYLGTIFCVLCIYCSIGVQVFGGLVNAGNKKLFETELAEDDYLLFNFNDYPNGMVTLFNLLVMGNWQVWMESYKDLTGTWWSITYFVSFYVITILLLLNLVVAFVLEAFFTELDLEEEEKCQGQDSQEKRNRRRSAGSKSRSQRVDTAAHHMAGDELSKPECSTSDT", "modifications": "C-terminal GFP", "notes": "leucines L714, 715, 719 of TPC1 replaced by alanine"}, "B2": {"name": "TPC1-S706D (protein, UniProt Q94KI8 1-733, looked up, variant S706D)", "Two pore calcium channel …": "B1 Two pore calcium channel … with S706D, A714L, A715L, A719L"}, "B3": {"name": "TPC1-S706A (protein, UniProt Q94KI8 1-733, looked up, variant S706A)", "Two pore calcium channel …": "B1 Two pore calcium channel … with S706A, A714L, A715L, A719L"}, "B4": {"name": "TPC1-3LP: substitution of three leucines (L714, 715, and 719) by prolines (protein, UniProt Q94KI8 1-733, looked up, variant L714P L715P L719P)", "Two pore calcium channel …": "B1 Two pore calcium channel … with A714P, A715P, A719P", "modifications": "C-terminal GFP", "notes": "substitution of three leucines (L714, 715, and 719) by prolines"}, "B5": {"name": "TPC1: wild type Arabidopsis two-pore channel TPC1 expressed as GFP-fusion in tpc1-2 background (protein)", "chain": "B1 Two pore calcium channel … with A714L, A715L, A719L", "modifications": "left off: Venus C-terminal half (VC, one copy) or Venus N-terminal half (VN, the other copy), C-terminal, kept", "notes": "wild type Arabidopsis two-pore channel TPC1 expressed as GFP-fusion in tpc1-2 background"}, "B6": {"name": "TPC1ΔC29: truncated TPC1 containing residues 1–704 (protein, UniProt Q94KI8 1-704, looked up, fragment)", "chain": "MEDPLIGRDSLGGGGTDRVRRSEAITHGTPFQKAAALVDLAEDGIGLPVEILDQSSFGESARYYFIFTRLDLIWSLNYFALLFLNFFEQPLWCEKNPKPSCKDRDYYYLGELPYLTNAESIIYEVITLAILLVHTFFPISYEGSRIFWTSRLNLVKVACVVILFVDVLVDFLYLSPLAFDFLPFRIAPYVRVIIFILSIRELRDTLVLLSGMLGTYLNILALWMLFLLFASWIAFVMFEDTQQGLTVFTSYGATLYQMFILFTTSNNPDVWIPAYKSSRWSSVFFVLYVLIGVYFVTNLILAVVYDSFKEQLAKQVSGMDQMKRRMLEKAFGLIDSDKNGEIDKNQCIKLFEQLTNYRTLPKISKEEFGLIFDELDDTRDFKINKDEFADLCQAIALRFQKEEVPSLFEHFPQIYHSALSQQLRAFVRSPNFGYAISFILIINFIAVVVETTLDIEESSAQKPWQVAEFVFGWIYVLEMALKIYTYGFENYWREGANRFDFLVTWVIVIGETATFITPDENTFFSNGEWIRYLLLARMLRLIRLLMNVQRYRAFIATFITLIPSLMPYLGTIFCVLCIYCSIGVQVFGGLVNAGNKKLFETELAEDDYLLFNFNDYPNGMVTLFNLLVMGNWQVWMESYKDLTGTWWSITYFVSFYVITILLLLNLVVAFVLEAFFTELDLEEEEKCQGQDSQEKRNRRRSAGS", "modifications": "C-terminal GFP"}, "B7": {"name": "TPC1ΔC8: truncated TPC1 containing residues 1–725 (protein, UniProt Q94KI8 1-725, looked up, fragment)", "chain": "MEDPLIGRDSLGGGGTDRVRRSEAITHGTPFQKAAALVDLAEDGIGLPVEILDQSSFGESARYYFIFTRLDLIWSLNYFALLFLNFFEQPLWCEKNPKPSCKDRDYYYLGELPYLTNAESIIYEVITLAILLVHTFFPISYEGSRIFWTSRLNLVKVACVVILFVDVLVDFLYLSPLAFDFLPFRIAPYVRVIIFILSIRELRDTLVLLSGMLGTYLNILALWMLFLLFASWIAFVMFEDTQQGLTVFTSYGATLYQMFILFTTSNNPDVWIPAYKSSRWSSVFFVLYVLIGVYFVTNLILAVVYDSFKEQLAKQVSGMDQMKRRMLEKAFGLIDSDKNGEIDKNQCIKLFEQLTNYRTLPKISKEEFGLIFDELDDTRDFKINKDEFADLCQAIALRFQKEEVPSLFEHFPQIYHSALSQQLRAFVRSPNFGYAISFILIINFIAVVVETTLDIEESSAQKPWQVAEFVFGWIYVLEMALKIYTYGFENYWREGANRFDFLVTWVIVIGETATFITPDENTFFSNGEWIRYLLLARMLRLIRLLMNVQRYRAFIATFITLIPSLMPYLGTIFCVLCIYCSIGVQVFGGLVNAGNKKLFETELAEDDYLLFNFNDYPNGMVTLFNLLVMGNWQVWMESYKDLTGTWWSITYFVSFYVITILLLLNLVVAFVLEAFFTELDLEEEEKCQGQDSQEKRNRRRSAGSKSRSQRVDTLLHHMLGDELSK", "modifications": "GFP fusion"}},
  "key": {"[1]": {"system": "slow vacuolar (SV) currents in tpc1-2 vacuoles", "assay": "Whole-vacuolar patch-clamp of TPC1 variants (SV currents)", "assay_type": "cell-based, Arabidopsis thaliana", "conditions": "for whole-vacuolar SV currents: GFP-fusion in tpc1-2 vacuoles, 1 mM CaCl2 bath, pH 7.5; for reduction of whole-vacuolar current amplitude: relative to TPC1 wild type", "procedure": "(§1) Expression of GFP-fusion proteins for electrophysiological measurements or confocal microscopy was performed in A. thaliana tpc1-2 mesophyll protoplasts as described. Briefly, leaves were enzymatically digested to release mesophyll protoplasts, which were then transformed by the polyethylene glycol method. Protoplasts were used for electrophysiological measurements and subcellular localization of GFP fluorescence 2–4 days after transformation.\n(§2) Patch-clamp experiments were performed on transformed vacuoles harboring two-pore channels as identified by GFP fluorescence. The pipette (luminal) solution consisted of 100 mM K-gluconate, 2 mM MgCl2, 10 mM EGTA, 10 mM MES, pH 5.5/Tris. The bath (cytosolic) solution contained 50 mM K-gluconate, 1 mM CaCl2, 1 mM MgCl2, 2 mM DTT, 10 mM HEPES, pH 7.5/Tris. Solutions were adjusted to 430 mosmol/kg by adding D-sorbitol. For analysis of the TPC1-S706 mutants two further calcium concentrations of the bath solution were used in which 1 mM CaCl2 was substituted by 0.2 mM or 0.05 mM CaCl2, respectively. Competition assays using the CTH peptide were performed on endogenous TPC1 channels in vacuoles isolated from Col-0 plants. Peptides were dissolved at 10 mM in bath solution supplemented with 1 % DMSO and 0.1 % pluronic, and diluted >600-fold for application in patch-clamp recordings. Currents were recorded either in the whole-vacuolar or cytosolic side-out configuration of the patch-clamp technique, using an EPC10 amplifier and the program PULSE (HEKA electronics, Lambrecht, Germany). Recordings and data analysis were performed as described earlier. Relative open probabilities (P o) were determined from tail currents at −53 mV, following pulses to the different test voltages. Tail currents were normalized to the maximum values at 1 mM Ca^2+, plotted as a function of the applied test voltage, and fitted according to the Boltzmann equation: PO=A/1+exp^zF/RT·(Vo-V) where V o and z are parameters for the voltage at half-maximum open probability and the apparent number of gating charges, respectively, and A describes the maximum conductance that is reached under the experimental conditions."}, "[2]": {"system": "excised cytosolic side-out vacuolar membrane patches of tpc1-2 cells", "assay": "Excised cytosolic side-out patch recordings of TPC1 variants", "assay_type": "cell-based, Arabidopsis thaliana", "conditions": "for macroscopic currents in excised patches: tpc1-2 cells; for current remaining following reduction of Ca2+ from 1 mM to 200 µM: at 107 mV, Ca2+ reduced from 1 mM to 200 µM (n = 3–7)", "procedure": "as §1, §2"}, "[3]": {"system": "TPC1 subunits co-expressed in Nicotiana benthamiana leaves", "assay": "Bimolecular fluorescence complementation (Split Venus BiFC)", "assay_type": "cell-based", "conditions": "N. benthamiana leaves, plate reader and confocal", "procedure": "For BiFC analyses the gateway entry vector pENTR-D-TOPO and the destination vectors pDEST–^GWVYCE and pDEST–^GWVYNE were used for C-terminal fusion of the Venus C- and N-terminus, respectively, and pDEST–VYCE(R)^GW and pDEST–VYNE(R)^GW for N-terminal tagging.\nBiFC studies were performed as described using a Split Venus system. The Agrobacterium strain C58C1 [42] harboring the plasmid of interest and the helper strain p19 [43] were grown in LB medium supplemented with 100 µg/ml Kanamycin at 29 °C overnight. The cultures were brought to an optical density (OD600) of 1.0 in infiltration buffer (10 mM MES, 10 mM MgCl2, 100 µM acetosyringone, pH 5.7/KOH) and the combinations to test for co-expression mixed at equal amounts. The p19 helper strain (OD600 = 1.0) was added to these mixtures in a 1:1 ratio. Suspensions were incubated for 2 h before infiltration into the abaxial side of 6-week-old N. benthamiana leaves. Each leaf was infiltrated with several plasmid combinations and a positive control (TPC1/pDEST-^GWVYCE and TPC1/pDEST-^GWVYNE) as well as a negative control (p19 alone) at separated areas to monitor comparability of the transient expression and to define background fluorescence.\nFor fluorescence quantification leaf disks (Ø 6 mm) were cut out of the infiltrated areas with a cork borer 2.5 day after infiltration. Leaf disks were placed upside-down in a black 96-well plate prefilled with 70 µl H2O per well to minimize dehydration effects. Fluorescence was measured with a plate-reader (Infinite F200, Tecan) with an excitation wavelength of 485 ± 20 nm and an emission wavelength of 525 ± 25 nm."}, "tonoplast": {"system": "tonoplast", "assay": "Confocal localization of GFP-fusions in tpc1-2 mesophyll protoplasts", "assay_type": "cell-based, Arabidopsis thaliana", "conditions": "GFP-fusion in tpc1-2 mesophyll protoplasts", "procedure": "as §1\nFluorescence signals were detected and documented with a TCS SP2 confocal laser scanning microscope and the Leica Confocal Software (Leica Microsystems). A 488 nm Argon laser was used for excitation of GFP and of the auto-fluorescence of chlorophyll. GFP-signals were detected from 500 to 556 nm and chlorophyll signals from 675 to 767 nm. Venus was excited with a […] and detected in the range from 520 to 556 nm, the corresponding chlorophyll signals were detected from 637 to 736 nm. Images were processed with Photoshop (Adobe Systems)."}},
  "note": "Changes are numbered by the printed parent chain. In names and notes the source's numbering stands.",
  "data": [
    {"molecule": "B1", "values": [
      {"measurement": "whole-vacuolar SV currents", "setting": "[1]; whole-vacuolar", "value": "loss of SV currents to a similar extent as TPC1-3LP"},
      {"measurement": "single-channel conductance", "setting": "[2]; excised cytosolic side-out patch, tpc1-2 cell, linear fit", "value": 58, "unit": "pS"},
      {"measurement": "macroscopic currents in excised patches", "setting": "[2]", "value": "no macroscopic currents were resolved"}
    ]},
    {"molecule": "B2", "values": [
      {"measurement": "reduction of whole-vacuolar current amplitude", "setting": "[1]", "value": 58, "unit": "%"},
      {"measurement": "current remaining following reduction of Ca2+ from 1 mM to 200 µM", "setting": "[2]", "value": "24 ± 4", "unit": "%"}
    ]},
    {"molecule": "B3", "values": [
      {"measurement": "reduction of whole-vacuolar current amplitude", "setting": "[1]", "value": 53, "unit": "%"},
      {"measurement": "current remaining following reduction of Ca2+ from 1 mM to 200 µM", "setting": "[2]", "value": "28 ± 3", "unit": "%"}
    ]},
    {"molecule": "B4", "values": [
      {"measurement": "residual whole-vacuolar current amplitude (% of wild type amplitude)", "setting": "[1]; whole-vacuolar, 1 mM CaCl2, relative to wild type, results section", "value": "about 7%"},
      {"measurement": "macroscopic currents in excised patches", "setting": "[2]", "value": "no macroscopic currents were resolved"},
      {"measurement": "BiFC signal", "setting": "[3]", "value": "reduced compared to the wild type"}
    ]},
    {"molecule": "B5", "values": [
      {"measurement": "current remaining following reduction of Ca2+ from 1 mM to 200 µM", "setting": "[2]", "value": "53 ± 10", "unit": "%"},
      {"measurement": "BiFC signal", "setting": "[3]", "value": "BiFC signals from wild type channels could be observed"}
    ]},
    {"molecule": "B6", "values": [
      {"measurement": "whole-vacuolar SV currents", "setting": "[1]; whole-vacuolar", "value": "stayed silent"},
      {"measurement": "subcellular localization of GFP-fusion", "setting": "tonoplast", "value": "localized in the tonoplast"}
    ]},
    {"molecule": "B7", "values": [
      {"measurement": "whole-vacuolar SV currents", "setting": "[1]; whole-vacuolar", "value": "wild type like"},
      {"measurement": "subcellular localization of GFP-fusion", "setting": "tonoplast", "value": "localized in the tonoplast"}
    ]}
  ]
}
